Two molecules from patent US20230383005A1 (University of California, published 2023) can be followed below.

The target of test [1] is human CD46 on the surface of living multiple myeloma cells (human), P15529. As to the kind of experiment: cell-based or functional assay.
For test [2], the target named is human CD46 on the surface of living multiple myeloma cells (human) (UniProt P15529). As to the kind of experiment: FACS on living MM1.S cells, MFI fitted with a one-site specific binding model.
For test [3] the target is unchanged. As to the kind of experiment: FACS on living RPMI8226 cells, MFI fitted with a one-site specific binding model.
The target in test [4] is T1, recombinant CD46-Fc fusion (human CD46 domains 1 and 2) (human, UniProt P15529 35-159).
T1 construct: domain: domains 1 and 2; also called recombinant human CD46 protein fragment; recombinant CD46-Fc (domains 1 and 2); not shown: Fc from the pFUSE-Fc vector (Invivogen)
T1 sequence (looked up): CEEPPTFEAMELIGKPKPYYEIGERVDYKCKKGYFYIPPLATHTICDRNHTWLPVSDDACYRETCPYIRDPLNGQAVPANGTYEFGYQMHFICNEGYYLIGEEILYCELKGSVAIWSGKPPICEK
As to the kind of experiment: BLItz label-free biosensor (ForteBio), sensor coated with YS5 IgG1, CD46-Fc (domains 1 and 2) in solution. (In general: BLI is a label-free optical method that tracks binding on a fibre tip over time.)

Test [5] deals with T1, recombinant CD46-Fc fusion (human CD46 …). As to the kind of experiment: BLItz biolayer interferometry, biosensor coated with YS5 IgG1, CD46-Fc at 100 to 400 nM; one value for all four runs.

B1: CD46-ADC (anti-CD46 IgG1 YS5 conjugated to MMAF via the mcvcpab linker) (antibody, V domains shown)
VH: QVQLVQSGGGVVQPGRSLRLACAASGLTVNNYAMHWVRQAPGKGLEWVAVISYDGNNKYYADSVKGRFTISRDNSKNTLYLQMNSLRAEDTAVYYCAKGGGYFDLWGRGTLVTVSS
VL: QSVLTQPPSVSGAPGQRVTISCTGSSSNIGAGYDVHWYQQLPGTAPKLLIYGNNNRPSGVPDRFSGSKSGTSASLAITGLQAEDEADYYCSSYTSGTWLFGGGTKLTVL
modifications: here or on the partner: mcvcpab-MMAF on cysteines freed by TCEP reduction; average drug per antibody 3.3; sites not stated
Take B1: in test [1], the EC50, killing of primary MM patient cells at 48 hours (Annexin V/PI FACS) was under 10 nM; the EC50, viability of MM1.S alone (luciferase, 96 hours) is 2.25 nM; the EC50, viability of MM1.S in the presence of BM61 stromal cells stood at 1.05 nM; the EC50, viability of MM1.S in the presence of HS5 stromal cells stood at 0.77 nM. Besides, the EC50, viability of MM1.S in the presence of HS27A stromal cells in test [1] stood at 0.92 nM.

B2: YS5 IgG1 (full-length human anti-CD46 IgG1) (antibody, V domains shown)
VH: QVQLVQSGGGVVQPGRSLRLACAASGLTVNNYAMHWVRQAPGKGLEWVAVISYDGNNKYYADSVKGRFTISRDNSKNTLYLQMNSLRAEDTAVYYCAKGGGYFDLWGRGTLVTVSS
VL: QSVLTQPPSVSGAPGQRVTISCTGSSSNIGAGYDVHWYQQLPGTAPKLLIYGNNNRPSGVPDRFSGSKSGTSASLAITGLQAEDEADYYCSSYTSGTWLFGGGTKLTVL
notes: also called anti-CD46 antibody; CD46 antibody
Usually Kd stands for the concentration at which binding is half-saturated. One may read the kon as the rate constant with which the complex forms. For the molecule B2, the Kd in test [2] is 2.24 nM; in test [3] it was 1.19 nM; in test [4], 2.99 nM. Moreover, the kon in test [5] worked out at 88000 M⁻¹ s⁻¹.
